{"source": "the nanobody polyreactivity screen of Harvey et al. (2022)"}
{"experiment": "yeast display, Sf9 membrane polyspecificity reagent, FACS + sequencing; frameworks hold sequencing errors", "how_it_was_run": "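Nanobodies from a synthetic yeast display library (Saccharomyces cerevisiae BJ5465), induced 36–48 hours with galactose, were stained 1 hour at 4 °C with 10% biotinylated, detergent-solubilized Sf9 membrane reagent, enriched on streptavidin microbeads, then FACS-sorted. Anti-HA (expression) and streptavidin (reagent binding) fluorescence set low and high (top ~1%) gates. Polyreactivity labels come from the gate of origin. Genes were colony-PCR amplified, MiSeq 2 × 250 sequenced and filtered by CDR length.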"}
{"sequence": "QVHLVESGGGLVQAGGSLRLSCAASGSTFYRYAMGWYRQAPGKERELVAAITTSGDSTYYADSVKGRFTISRDNAKNTVYLQMNSLKPEDTAIYDCNKVGRYSSYYWGQGSQVTVSS", "polyreactivity (PSR sort gate)": "high polyreactivity"}
{"sequence": "QVHLVESGGGLVQAGGSLRLSCAASGSTFYVNAMGWDRQAPGKERELVAAIRSSGRTNYADSVKGRFTISRDNAKNTVYLQMNSLKPEDTAVYYCAAEVPHWPYYGRLHDRDYWGQGTQVTVSS", "polyreactivity (PSR sort gate)": "low polyreactivity"}
{"sequence": "QVHLVESGGGLVQAGGSLRLSCAASGSTFYYAMGLYRKAPGKERELVASITFSTGSTYYADSVKGRFTISRDNAKNTVLLQMNSLKPEDTAVYYCATGVDTFSLSVEHDSWGQGTQVTVSS", "polyreactivity (PSR sort gate)": "low polyreactivity"}
{"sequence": "QVHLVESGGGLVQAGGSLRLSCAASGSTIDYKAMGWYRQAPGKERELVAAITTIGGSTYYADSVKGRFTISRDNAKNTVYLQMNSLKPEDTAVYYCAADLRVWGRSGYDYWGQGTQVTVSS", "polyreactivity (PSR sort gate)": "low polyreactivity"}
{"sequence": "QVHLVESGGGLVQAGGSLRLSCAASGSTSYVYAMGWYRKAPGKERELVAAISGSGGRTYYADSVKGRFTISRDNAKNTVYLQMNSLKPEDTAVYYCNALPRPSYPFDYWGQGTQVTVSS", "polyreactivity (PSR sort gate)": "high polyreactivity"}
{"sequence": "QVHLVESGGGLVQAGGSLRLSCAASGTIFGINAMGWYRQAPGKERELVAGITSGGSTYYADSLKGRFTISRDNAKNTVDLQMNILKPEDTAVYYCAAVANQWYTEREYWGQGTQVTVSS", "polyreactivity (PSR sort gate)": "low polyreactivity"}
{"sequence": "QVHLVESGGGLVQAGGSLRLSCAASGYIFHVYAMGWYRQAPGKERELVAAITSSGGSKYYADSVKGRFTISRDNAKNTVYLQMNCLKPEDTAVYYCAARTRYISGRQTGYDYWGQGTQVTVSS", "polyreactivity (PSR sort gate)": "high polyreactivity"}
{"sequence": "QVHLVESGGGLVQAGGSLRLSCAASGYIFTGYAMGCYRQAPGKERELVATINTDGDSTYYADSVKGRFTISRDNAKNTVYLQMNSLKPEDTAVYYCNKRLTQAYDDQVGYDYWGQGTQVTVSS", "polyreactivity (PSR sort gate)": "low polyreactivity"}
{"sequence": "QVHLVESGGGLVQAGGSLRLSCAASGYRNAMGWYRQAPGKERELVAAISSGGSTYADSVKGRFTISRDNAKNTVYLQMNSLKPEDTAVYYCAAGPVPTYDYGNFDYWGQGTQVTVSS", "polyreactivity (PSR sort gate)": "low polyreactivity"}
{"sequence": "QVHLVESGGGLVQAGGSLRLSCAASGYTFDSYAMGWYRQAPGKERELVAAISSGGRTKYADSVKGRFTISRDNAKNTVYLQMNSLKPEDTAFYYCAARRTFGVGILVGYWGQGTQVTVSS", "polyreactivity (PSR sort gate)": "high polyreactivity"}
{"sequence": "QVHLVESGGGLVQAGGSLRLSCAASGYTFVVYAMGWYIQAPGKERELVAAINKSGGSTYYADSVKGRFTISRDHAKNSVYLQMNSLKAEDTAFYYCAADLLKLRTDYYWGQGTQVTVSS", "polyreactivity (PSR sort gate)": "low polyreactivity"}
{"sequence": "QVHLVESGGGLVQAGGSLRLSCAASVRIISAYAMGWYRQAPGKERELVAAINGSGGSTYYADSVKGRFTISRDNAKNTVYLQMNSLKPEDTAVYYCAAKIDYPDARYFPYRYYYWGQGTQVTVSS", "polyreactivity (PSR sort gate)": "high polyreactivity"}
{"sequence": "QVHLVESGGGLVQAGGSLRLSCAATGLIFPRYAMGWSRQAPGKEREMVAAITRGGSTYYADSVKGRFTISRDNAKNTVYLQMYSLKPEDTAVYYCNADYSPSTWYLYYSLYYYWGQGTQVTVSS", "polyreactivity (PSR sort gate)": "low polyreactivity"}
{"sequence": "QVHLVESGGGLVQAGGSLRLSCAATGSTFPYNTMGWYRQAPGKERELVAAISSSGGSTYYADSVKGRFTISRDNAKNSVYLQRKSLKPEENAVYYCKAQIVASYQARRYYYWGQGTQVTVSS", "polyreactivity (PSR sort gate)": "low polyreactivity"}
{"sequence": "QVHLVESGGGLVQAGGSLRLSCAAYGRIFKNYAMGWYRQAPGKESELVAAISWSGGRTYYADSVKGRFTISRDNAKNTVYLQMNSLKPEDTAVYYCATAARRGTSSIEPFGYGSWGQGTQVTVSS", "polyreactivity (PSR sort gate)": "high polyreactivity"}
{"sequence": "QVHLVESGGGLVQAGGSLRLSCAAYGSIFHGNAMGWYRQAPGKERELVAAISWSGDSTYYADSVKGRFTISRDNAKNTVYLHMNSLKPEDTAVYSCNAEWTRDFYEYDYWGQGTQVTVSS", "polyreactivity (PSR sort gate)": "low polyreactivity"}
{"sequence": "QVHLVESGGGLVQAGGSLRLSCAAYGSIFRVYAMGWYRPAPGKERELVAAIDSGGSTYYADSVKGRFTISRDNAKNTVYLQMNSLKPEDTAVYYCNADRRPGGDYWGQGTQVTVSS", "polyreactivity (PSR sort gate)": "low polyreactivity"}
{"sequence": "QVHLVESGGGLVQAGGSLRLSCAPSGSTFIRNAILWYRQAPGKDRELVAPISRSGSSTYYADSVKGRFTISRDNAKNTVYLQMNSLKPEDTAVYYCAAETDSRKARVLYDSWGQGTQVTVSS", "polyreactivity (PSR sort gate)": "high polyreactivity"}
{"sequence": "QVHLVESGGGLVQAGGSLRLSCASYGSTLELNAMGWYRQAPGKERELVAAITSSGGRTYYADSVKGRFTISRDNAKNTVYLQMKSLKPEDTAVYYCAAEPGQQRVVDRYDYWGQGTQVTVSS", "polyreactivity (PSR sort gate)": "low polyreactivity"}
{"sequence": "QVHLVESGGGLVQAGGSLRLSCDASGRIFKYNAMGWYRQAPGKERELVAAISSGGSTNYADSVKGRFTISRDNAKNTVYLQMNSLKPEDTAVYDCAADGTRVSSFHYLVWLCYWGQGTQVTVSS", "polyreactivity (PSR sort gate)": "low polyreactivity"}
{"sequence": "QVHLVESGGGLVQAGGSLRLSCDASGSIIDGYGMGWYRQAPGKERELVASITWNDGSTYYADSVKGRFTISRDNAKNTVYLQMNSLKPEDTAVYYCAADQWGYEYDYWGQGTQVTVSS", "polyreactivity (PSR sort gate)": "low polyreactivity"}
{"sequence": "QVHLVESGGGLVQAGGSLRLSCHASGIIFKTYAMGWYRQPPGKERELVAAISSGGTTYYADSVKGRFTISRDNAKNTVYLQMNSLKPEDTAVYYCAARGYRSGGGYNYWGQGTQVTVSS", "polyreactivity (PSR sort gate)": "high polyreactivity"}
{"sequence": "QVHLVESGGGLVQAGGSLRLSCPASGRTFYRKAMGWDRQAPGKERELVAAITSGGGTTYADSVKGRFTISRDNAKNTVYLQMNSLKPEDTAVYYCAAGRVRRRVLYNYWGQGTQVTVSS", "polyreactivity (PSR sort gate)": "high polyreactivity"}
{"sequence": "QVHLVESGGGLVQAGGSLRLSCSASGITFLTYTMGWYRQEPGKERELVASIRYSTGSTYYADSVKGRFTISRDNAKNTVYLQMNSLKPEDTAVYYCNDYSSYIKYDYWGQGTQVTVTS", "polyreactivity (PSR sort gate)": "high polyreactivity"}
{"sequence": "QVHLVESGGGLVQAGGSLRLSCSASGITFTRYTMGWYRQARGKERELVASIRRSGSTNYADSVKGRFTISRDNAKNTVYLQMNSLKPEDTAVYYCAAVQTGRYYYWGQGTQVTVSS", "polyreactivity (PSR sort gate)": "high polyreactivity"}
{"sequence": "QVHLVESGGGLVQAGGSLRLSCSASGRIFDNYVMGWYRQAPGKERELVAAISSGGGTYYADSVKGRFTISRDNAKNTVFLQMNSLKPEDTAVYYCAKRRVYDRSFGRYDYWGQGTQVTVSS", "polyreactivity (PSR sort gate)": "low polyreactivity"}
{"sequence": "QVHLVESGGGLVQAGGSLRLSFAASGFTFGQNAMGWYRQAPGKEREFVATITASGSTYYADSVKGRFTISRDNAKNTVYLQMYSLKPEDTAVYYCATRYAGEYYWDYDYWGQGTQVTVSS", "polyreactivity (PSR sort gate)": "high polyreactivity"}
{"sequence": "QVHLVESGGGLVQAGGSLRLSFAASGRIFARYALGWYRPAPGKERELVAAITSGGSTHYADSVKGRFTIARENAKNTVYLQMNSLKPEDSAVYYCAAVYRGQRYDYWGQGTQVTVSS", "polyreactivity (PSR sort gate)": "high polyreactivity"}
{"sequence": "QVHLVESGGGLVQAGGSLRLSFAASGRIFDLYTMGWYRQAPGKERELVAAIRWSDGSTYYADSVKGRFTISRDNAKNTVYLQMNSLKPEDTAVYYCAADTRTSYYNDDYDYWGQGTQVTVSS", "polyreactivity (PSR sort gate)": "low polyreactivity"}
{"sequence": "QVHLVESGGGLVQAGGSLRLSFAASGSTFYVNAMGWYRQAPGKERELVAAIRYSGGRTYYADSVKGRFTISRDNAKNNVYLQLNRLKPEDTAVYFCAATTYYGGLYTREFDYWGQGTQVTVSS", "polyreactivity (PSR sort gate)": "low polyreactivity"}
{"sequence": "QVHLVESGGGLVQAGGSLRLSGAASGSTFLEYARGWYRQAPGKERELVADISSGGGTHYADSVKGRFTISRDNAKNTVYLQMNSLKPDDTAVYYCNRDISGSSGGELDYWGQGSQVTVSS", "polyreactivity (PSR sort gate)": "low polyreactivity"}
{"sequence": "QVHLVESGGGLVQAGGSLRLSSAASGRTFRGNAMGWYRQPPGKEREFDAVISGSGGSTYYADSVKGRFTISRDNAKNTVYLQMNSLKPEDTAVYYCGDKPSRWQRYDYWGQGTQVTVSS", "polyreactivity (PSR sort gate)": "high polyreactivity"}
{"sequence": "QVHLVESGGGLVQAGGSLRLSSAPSGSILLINAMGWYRQAPGKERELVAAIRTGGSTYYADSVKGRFTISRDNAKNTVYLQMNSLKPEDTAVYYCNVDYDVQPGGEFDYWGQGTQVTVSS", "polyreactivity (PSR sort gate)": "low polyreactivity"}
{"sequence": "QVHLVESGGGLVQAGGSLRLSWAASGFIFKNYAMGWYRQAPGKERELVAVISRSGGSTYYADSVKGRFTISRDNAKNTVYLQMNSLKPEDTAVYYCNADRWKSGYWRYDYWGQGTQVTVSS", "polyreactivity (PSR sort gate)": "low polyreactivity"}
{"sequence": "QVHLVESGGGLVQAGGSLRLSWAASGSILRQYAMGWYRQAPGKERELVATITGDGSTNYADSVKGRFTISRDNAKNTVYLQMNSLKPQDTAVYYCITDLTYPNPNVEVMVYGFKLDYWGQGTQVTVSS", "polyreactivity (PSR sort gate)": "low polyreactivity"}
{"sequence": "QVHLVESGGGLVQAGGSLRLTCAASGFIFQWYAMGWYRQAPGKERELVAAINSSGSTNYADSVKGRFTISRDNAKNSGYLQRNILKPEDTAVYYCAAHWRYGRKFDYWGQGTQVTVSS", "polyreactivity (PSR sort gate)": "high polyreactivity"}
{"sequence": "QVHLVESGGGLVQAGGSLSLSCAASGLNFRTYAMGWYRQAPGKERELVAAISSSGGSTYYADSVKGRFTISRDNAKNTVYLQMNSLKPEDTAVYYCNVGSRRRRYLDRYEYWGQGTQVTVSS", "polyreactivity (PSR sort gate)": "high polyreactivity"}
{"sequence": "QVHLVESGGGLVQAGRSLRLSCAASGIIFQLYAMGWYRQPPGKERELVATISSVGSTNYADSVKGRFTISRDNAKNTVYLEMTSLNPEDTAVYYCNAARYGWGYFYGLNYWGQGTQVTVSS", "polyreactivity (PSR sort gate)": "low polyreactivity"}
{"sequence": "QVHLVESGGGLVQAGRSLRLSCAASGLTFGTNPMGWYRQAPGKERELVAAITWRGGSTSYADSVKGRFTISRDNAKNTVYLQMNSLKPEDTAVYYCAVRLRYPGNTFYDWGQGTQVTVSS", "polyreactivity (PSR sort gate)": "high polyreactivity"}
{"sequence": "QVHLVESGGGLVQAGRSLRLSCAASGRTSAYYAMGWYRQAPGKERELDAGITRGGRTNYADSVKGRFTISRDNAKNTVYLQMNSLKPEDTAVYYCAAKYGYYWNSRTSGYWGQGTQVTVSS", "polyreactivity (PSR sort gate)": "high polyreactivity"}
{"sequence": "QVHLVESGGGLVQEGGSLRLSFAASGSSFIWYGMGWYRQAPGKARELVATITSSGSTNYADSVKGRFTISRDNAKNTVYLQMNSLKPEDTAVFYCAKRGPLRHYSWGQGTQVTVSS", "polyreactivity (PSR sort gate)": "low polyreactivity"}
{"sequence": "QVHLVESGGGLVQSGGSLRLSCAASGTIFEANVKGWYRQAPGKERELVATISSDGTSTYYADSVKGRFTISRDNAKYTVYLQMNSRKPEDTAVYYCNADAGAGWYPDSKYAYDYWGQGTLVTVSS", "polyreactivity (PSR sort gate)": "low polyreactivity"}
{"sequence": "QVHLVESGGGLVQSGGSLRLSCAATGNIFGRYAKGWYRQAPGKERELVAGISRGVSTSYADSVKGPFTISRDNAKNTVYLQMYSLKPDDTAVYYCTKRPWYLSDYWGQGTEVTVSS", "polyreactivity (PSR sort gate)": "low polyreactivity"}
